# Changes are numbered by the printed parent chain.
# B1: MON-HT9: engineered oxygenase protein, amino acid sequence SEQ ID NO:40 (protein)
# chain: MHAALTPLTNKYRFIDVQPLTGVLGAEITGVDLREPLDDSTWNEILDAFHTYQVIYFPAQQITNEQHISFSRRFGPVDPVPLLKSIEGYPEVQMIRREANESGRILGDDWHTDSTFLDAPPAAVVMRAIEVPEYGGDTGFLSMYSAWDTLSDTMKATIEGLNVVHSATRVFGSLYQAQNWRFSNTSVKVMDVDAGDRETVHPLVVSHPVTGRRALYCNQVYCQRIEGMTDAESKCLLQFLYEHATKFDFTCRVRWKKDQVLVWDNLCTMHRAVPDYAGKFRYLTRTTVAGDRPAR
# B2: MON-HT10: engineered oxygenase protein, amino acid sequence SEQ ID NO:43 (protein)
# chain: B1 chain with T21C, A59G, Q61A, S69A, R271L, A277D, R292K, A294S
# B3: MON-HT55: engineered oxygenase protein, amino acid sequence SEQ ID NO:11 (protein)
# chain: MHAALSPLSQRFERIAVQPLTGVLGAEITGVDLREPLDDSTWNEILDAFHTYQVIYFPGQAITNEQHIAFSRRFGPVDPVPLLKSIEGYPEVQMIRREANESGRVIGENWHTDSTFLDAPPAAVVMYAKEIPPYGGDTLFTSMYTAWETLSPTMQATIEGLNVVHSATRVFGSLYQAQNRRFSNTSVKVMDVDAGDRETVHPLVVTHPETGRKGLYVNQVYCQRIEGMSEKESEPLLSFLFAHATKPEFTCRVRWQEGDVLVWDNLCTQHYAVPDYAGKFRYLTRTTVGGVRPAR
# B4: MON-HT7: engineered oxygenase protein, amino acid sequence SEQ ID NO:34 (protein)
# chain: MHAALTPLTNKYRFIDVQPLTGVLGAEITGVDLREPLDDSTWNEILDAFHTYQVIYFPGQAITNEQHIAFSRRFGPVDPVPLLKSIEGYPEVQMIRREANESGRVIGDDWHADSTFLDAPPAAVVMRAIEVPEYGGDTGFLSMYSAWETLSPTMQATIEGLNVVHSATKVFGSLYQATNWRFSNTSVKVMDVDAGDRETVHPLVVTHPVTGRRALYCNQVYCQKIQGMTDAESKSLLQFLYEHATKFDFTCRVRWKKDQVLVWDNLCTMHRSVPDYAGKFRYLTRTTVAGDKPSR
# B5: MON-HT1: engineered oxygenase protein, amino acid sequence SEQ ID NO:14 (protein)
# chain: B4 chain with L82I, G103S, V105F, A112T, S272A
# How the values were obtained:
# F1 hybrid maize plants [1] = test: trait efficacy field trial, 2,4-D pressure screening, F1 hybrid; assay type: in vivo; conditions: crop injury percentage; for 4X 2,4-D CIPV4 / 4X 2,4-D CIPV8: 4 lb ae/acre at VE-V2, V4, V8; for 8X 2,4-D CIPV4 / 8X 2,4-D CIPV8: 8 lb ae/acre at VE-V2, V4, V8; for 16X 2,4-D CIPV4 / 16X 2,4-D CIPV8: 16 lb ae/acre at VE-V2, V4, V8
# Method: (§1) Separate trait efficacy field trials for quizalofop-P and 2,4-D pressure screening were conducted at one location each with F1 hybrid transgenic plants produced by crossing an inbred plant containing maize event MON89034 with an R1 plant containing MON-HT1, MON-HT2, MON-HT8, MON-HT9, and MON-HT10 with and without operably linked CTP sequences. Transgenic F1 hybrid plants containing maize events NK603×MON89034 were used for comparison as a control.
# Three herbicide treatments were used in the trait efficacy field trial for 2,4-D tolerance: (1) 2,4-D amine at 4 lb ac/acre (4×) plus 0.25% v/v NIS applied to VE-V2 followed by V4 followed by V8; (2) 2,4-D amine at 8 lb ac/acre (8×) plus 0.25% v/v NIS applied to VE-V2 followed by V4followed by V8 maize; or (3) 2,4-D amine at 16 lb ac/acre (16×) plus 0.25% v/v NIS applied to VE-V2 followed by V4 followed by V8. Plots were visually rated as above.
# The injury rating for the control plants after all 2,4-D applications ranged from 80% to 96.25%. At the highest rate of 2,4-D (16×) applied through V8, the plants containing MON-HT1 or MON-HT2 operably linked to any of the three CTPs (A, B, or C) had better tolerance than plants containing MON-HT1 or MON-HT2 not operably linked to a CTP. Plants containing MON-HT1, MON-HT2, or MON-HT8 with or without an operably linked CTP had better tolerance to 2,4-D at all applications tested compared to plants containing either MON-HT9 or MON-HT10 with an operably linked ‘A’ CTP. Over the range of 2,4-D applications the relative ranking of tolerance was: plants containing MON-HT1 had better tolerance than plants containing MON-HT2 which were in turn better than plants containing MON-HT8. […] Error was calculated using LSD (0.05).
# F1 hybrid maize plants [2] = test: trait efficacy field trial, quizalofop-P pressure screening, F1 hybrid; assay type: in vivo; conditions: crop injury percentage; for 4X Qizalofop-P CIPV4 / 4X Qizalofop-P CIPV8: 0.32 lb ai/acre at VE-V2, V4, V8; for 8X Qizalofop-P CIPV4 / 8X Qizalofop-P CIPV8: 0.64 lb ai/acre at VE-V2, V4, V8; for 16X Qizalofop-P CIPV4 / 16X Qizalofop-P CIPV8: 1.28 lb ai/acre at VE-V2, V4, V8
# Method: as §1
# In the trait efficacy field trial for quizalofop-P tolerance, one of three herbicide treatments was used: (1) quizalofop-P (Assure II) at 0.32 lb ai/acre (4×) plus 0.25% v/v non-ionic surfactant (NIS) applied at VE-V2 growth stage followed by the same at V4 growth stage followed by the same at V8 growth stage; (2) quizalofop-P at 0.64 lb ai/acre (8×) plus 0.25% v/v NIS applied at VE-V2 growth stage followed by the same at V4 growth stage followed by the same at V8 growth stage; or (3) quizalofop-P at 1.28 lb ai/acre (16×) plus 0.25% v/v NIS applied at VE-V2 growth stage followed by the same at V4 growth stage followed by the same at V8 growth stage. Plots were visually rated as above. […] The injury rating for the control plants after all quizalofop-P application was 100%. Error was calculated using LSD (0.05).
# [3] = assay type: biochemical
# Method: To analyze these engineered proteins for activity in higher temperatures, the in vitro enzyme assay in Example 1 was modified to specify pre-heating all of the assay components to the desired temperature for 5 minutes before combining the components and then maintaining the reaction at the desired temperature for the duration of the reaction. To normalize the assay measurements, quizalofop-P was used as the substrate for the reaction and enzyme activity was normalized based on the 25° C. readings. Using these parameters, the temperature at which the enzyme activity was half of maximum (T1/2) was calculated. The T1/2 for MON-HT55 was calculated to be 29° C., and the T1/2 for wild-type RdpA was calculated to be 38° C. (FIG. 2A).
# Enzyme activity over a range of temperatures was analyzed in-depth for MON-HT1, MON-HT2, MON-HT7, and MON-HT8. These assays were conducted as described above. Quizalofop-P or 2,4-D was used as the substrate for these reactions and activity was normalized based on the activity of the wild-type enzyme at 25° C. The activity curves obtained are presented in FIG. 2B (with quizalofop-P as the substrate) and FIG. 2C (with 2,4-D as the substrate). Using quizalofop-P as the substrate, MON-HT55 was the most temperature sensitive, with a T1/2 of 29° C. […] MON-HTI was slightly less temperature sensitive, with a T1/2 about 1° C. higher than the wild-type enzyme.
# [4] = test system: mRNA transcribed from the transgene cassette; test: Quantigene analysis of transgene mRNA expression in leaf samples; conditions: normalized to maize housekeeping genes, average of eight samples
# Source text: Leaf samples were collected from the plants containing transgene cassettes encoding MON-HT1, MON-HT2, and MON-HT8 with and without CTP sequences to determine expression of the mRNA transcribed from the transgene cassette encoding the engineered proteins. Quantigene® analysis was done on the leaf sample extracts to determine mRNA expression of the transgene cassette. For these assays, the probe was to the common 3′-UTR sequence present in each expression cassette used to generate the transgenic plants. Relative expression was calculated by normalizing to maize housekeeping genes. A leaf sample was collected from each of eight plants for each construct configuration used to make the transgenic plants, and the reported relative mRNA expression data is an average of the eight samples with standard error.
molecule,measurement,setting,value
B1,"4X 2,4-D CIPV4",F1 hybrid maize plants [1]; CTP A,17.5
same,"4X 2,4-D CIPV8",F1 hybrid maize plants [1]; CTP A,55
same,"8X 2,4-D CIPV4",F1 hybrid maize plants [1]; CTP A,25
same,"8X 2,4-D CIPV8",F1 hybrid maize plants [1]; CTP A,75
same,"16X 2,4-D CIPV4",F1 hybrid maize plants [1]; CTP A,45
same,"16X 2,4-D CIPV8",F1 hybrid maize plants [1]; CTP A,90
same,4X Qizalofop-P CIPV4,F1 hybrid maize plants [2]; CTP A,0
same,4X Qizalofop-P CIPV8,F1 hybrid maize plants [2]; CTP A,5
same,8X Qizalofop-P CIPV4,F1 hybrid maize plants [2]; CTP A,2.5
same,8X Qizalofop-P CIPV8,F1 hybrid maize plants [2]; CTP A,15
same,16X Qizalofop-P CIPV4,F1 hybrid maize plants [2]; CTP A,7.5
same,16X Qizalofop-P CIPV8,F1 hybrid maize plants [2]; CTP A,20
B2,"4X 2,4-D CIPV4",F1 hybrid maize plants [1]; CTP A,32.5
same,"4X 2,4-D CIPV8",F1 hybrid maize plants [1]; CTP A,70
same,"8X 2,4-D CIPV4",F1 hybrid maize plants [1]; CTP A,55
same,"8X 2,4-D CIPV8",F1 hybrid maize plants [1]; CTP A,87.5
same,"16X 2,4-D CIPV4",F1 hybrid maize plants [1]; CTP A,45
same,"16X 2,4-D CIPV8",F1 hybrid maize plants [1]; CTP A,90
same,4X Qizalofop-P CIPV4,F1 hybrid maize plants [2]; CTP A,0
same,4X Qizalofop-P CIPV8,F1 hybrid maize plants [2]; CTP A,5
same,8X Qizalofop-P CIPV4,F1 hybrid maize plants [2]; CTP A,2.5
same,8X Qizalofop-P CIPV8,F1 hybrid maize plants [2]; CTP A,10
same,16X Qizalofop-P CIPV4,F1 hybrid maize plants [2]; CTP A,5
same,16X Qizalofop-P CIPV8,F1 hybrid maize plants [2]; CTP A,21
B3,"T1/2, temperature at which the enzyme activity was half of maximum",[3],29 °C
B4,"T1/2, temperature at which the enzyme activity was half of maximum",[3],47 °C
same,temperature sensitivity compared with the wild-type enzyme,"[3]; substrate 2,4-D, lower T1/2 than wild-type",slightly more temperature sensitive
B5,"T1/2, temperature at which the enzyme activity was half of maximum",[3],42 °C
same,T1/2 higher than the wild-type enzyme,[3],about 1 °C
same,"4X 2,4-D CIPV4",F1 hybrid maize plants [1]; CTP A,5
same,"4X 2,4-D CIPV8",F1 hybrid maize plants [1]; CTP A,5
same,"8X 2,4-D CIPV4",F1 hybrid maize plants [1]; CTP A,5
same,"8X 2,4-D CIPV8",F1 hybrid maize plants [1]; CTP A,10
same,"16X 2,4-D CIPV4",F1 hybrid maize plants [1]; CTP A,7.5
same,"16X 2,4-D CIPV8",F1 hybrid maize plants [1]; CTP A,15
same,"4X 2,4-D CIPV4",F1 hybrid maize plants [1]; CTP B,5
same,"4X 2,4-D CIPV8",F1 hybrid maize plants [1]; CTP B,5
same,"8X 2,4-D CIPV4",F1 hybrid maize plants [1]; CTP B,5
same,"8X 2,4-D CIPV8",F1 hybrid maize plants [1]; CTP B,10
same,"16X 2,4-D CIPV4",F1 hybrid maize plants [1]; CTP B,10
same,"16X 2,4-D CIPV8",F1 hybrid maize plants [1]; CTP B,15
same,"4X 2,4-D CIPV4",F1 hybrid maize plants [1]; CTP C,5
same,"4X 2,4-D CIPV8",F1 hybrid maize plants [1]; CTP C,5
same,"8X 2,4-D CIPV4",F1 hybrid maize plants [1]; CTP C,5
same,"8X 2,4-D CIPV8",F1 hybrid maize plants [1]; CTP C,10
same,"16X 2,4-D CIPV4",F1 hybrid maize plants [1]; CTP C,10
same,"16X 2,4-D CIPV8",F1 hybrid maize plants [1]; CTP C,17.5
same,"4X 2,4-D CIPV4",F1 hybrid maize plants [1]; no CTP,5
same,"4X 2,4-D CIPV8",F1 hybrid maize plants [1]; no CTP,5
same,"8X 2,4-D CIPV4",F1 hybrid maize plants [1]; no CTP,7.5
same,"8X 2,4-D CIPV8",F1 hybrid maize plants [1]; no CTP,10
same,"16X 2,4-D CIPV4",F1 hybrid maize plants [1]; no CTP,10
same,"16X 2,4-D CIPV8",F1 hybrid maize plants [1]; no CTP,22.5
same,4X Qizalofop-P CIPV4,F1 hybrid maize plants [2]; CTP A,0
same,4X Qizalofop-P CIPV8,F1 hybrid maize plants [2]; CTP A,7.5
same,8X Qizalofop-P CIPV4,F1 hybrid maize plants [2]; CTP A,2.5
same,8X Qizalofop-P CIPV8,F1 hybrid maize plants [2]; CTP A,10
same,16X Qizalofop-P CIPV4,F1 hybrid maize plants [2]; CTP A,5
same,16X Qizalofop-P CIPV8,F1 hybrid maize plants [2]; CTP A,15
same,4X Qizalofop-P CIPV4,F1 hybrid maize plants [2]; CTP B,2.5
same,4X Qizalofop-P CIPV8,F1 hybrid maize plants [2]; CTP B,5
same,8X Qizalofop-P CIPV4,F1 hybrid maize plants [2]; CTP B,2.5
same,8X Qizalofop-P CIPV8,F1 hybrid maize plants [2]; CTP B,7.5
same,16X Qizalofop-P CIPV4,F1 hybrid maize plants [2]; CTP B,2.5
same,16X Qizalofop-P CIPV8,F1 hybrid maize plants [2]; CTP B,20
same,4X Qizalofop-P CIPV4,F1 hybrid maize plants [2]; CTP C,0
same,4X Qizalofop-P CIPV8,F1 hybrid maize plants [2]; CTP C,5
same,8X Qizalofop-P CIPV4,F1 hybrid maize plants [2]; CTP C,2.5
same,8X Qizalofop-P CIPV8,F1 hybrid maize plants [2]; CTP C,10
same,16X Qizalofop-P CIPV4,F1 hybrid maize plants [2]; CTP C,5
same,16X Qizalofop-P CIPV8,F1 hybrid maize plants [2]; CTP C,20
same,4X Qizalofop-P CIPV4,F1 hybrid maize plants [2]; no CTP,2.5
same,4X Qizalofop-P CIPV8,F1 hybrid maize plants [2]; no CTP,10
same,8X Qizalofop-P CIPV4,F1 hybrid maize plants [2]; no CTP,10
same,8X Qizalofop-P CIPV8,F1 hybrid maize plants [2]; no CTP,22.5
same,16X Qizalofop-P CIPV4,F1 hybrid maize plants [2]; no CTP,22.5
same,16X Qizalofop-P CIPV8,F1 hybrid maize plants [2]; no CTP,37.5
same,Relative Expression,[4]; CTP A,7.80
same,Relative Expression,[4]; CTP B,5.95
same,Relative Expression,[4]; CTP C,3.82
same,Relative Expression,[4]; no CTP,4.31
